In article PMC8699518 (Biomolecules, 2021):

Key:
[1] = target: T1, recombinant glycosylated IFN-β (Pharmapark, Moscow, Russia) (Homo sapiens, UniProt P01574, glycosylated); assay: ELISA; Kd by the method of Friguet with the Klotz equation; murine antibody and IFN-β in solution at equilibrium, free antibody measured by ELISA
T1 construct: human interferon beta, glycosylated form (IFN-β-1a); also called IFN-β-1a; IFNβ-1a; source: bought: Pharmapark

[2] = target: T2, E. coli-HuIFN-γ (Homo sapiens, UniProt P01579); assay: ELISA; indirect ELISA of the hybridoma panel; antigens adsorbed overnight at 4 °C in PBS pH 7.2 at 2 μg/mL, 50 μL/well; anti-mouse immunoglobulin-HRP, OD450
T2 construct: human interferon gamma expressed in E. coli; source: expressed in E. coli
T2 sequence (P01579 24-161): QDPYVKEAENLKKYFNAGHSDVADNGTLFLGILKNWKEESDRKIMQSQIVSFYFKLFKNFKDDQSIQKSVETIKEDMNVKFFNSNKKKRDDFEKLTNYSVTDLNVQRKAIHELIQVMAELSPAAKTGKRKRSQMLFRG

T1 sequence (P01574 22-187): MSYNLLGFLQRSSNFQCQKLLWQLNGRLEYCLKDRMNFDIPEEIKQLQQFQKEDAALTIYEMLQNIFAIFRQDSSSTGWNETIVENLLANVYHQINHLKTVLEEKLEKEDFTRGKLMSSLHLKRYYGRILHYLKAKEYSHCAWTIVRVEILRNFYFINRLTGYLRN

B1: murine monoclonal antibody B16 against IFN-β (antibody, V domains shown)
VH: EVKLVESGGGLVQPGGSLKLSCAASGFTFTSYTMSWVRQTPEKRLEWVAYISNGGGSTYYPDTVKGRFTISRDNAKNTLYLQMSSLKSEDTAMYYCARLDWVFAYWGQGTLVTVSA
VL: DIVMTQSHKFMSTSVGDRVSITCKASQDVGTAVAWYQQKPGQSPKLLIYWASTRHTGVPDRFTGSGSGTDFTLTISNVQSEDLADYFCLQYSSFPYTFGGGTKLEIK
notes: VH of murine B16; mouse IgG heavy-chain constant region; VL of murine B16; mouse kappa light-chain constant domain (all L-chains of the panel were of the kappa isotype); Member of the hybridoma panel B1-B21; also called murB16; prototype mouse antibody; source: hybridoma B16
Kd [1]: 3.8 nM
binding result [2]: no binding
